Assay results from patent publication US20260250418A1 (BIOCYTOGEN PHARMACEUTICALS BEIJING, published 2026).

T1: monkey (Macaca fascicularis) HER3 on CHO-fasHER3 cells (monkey (Macaca fascicularis), UniProt P21860 20-643 (human entry))
T1 construct: CHO-S cells transfected with fasHER3
T1 chain: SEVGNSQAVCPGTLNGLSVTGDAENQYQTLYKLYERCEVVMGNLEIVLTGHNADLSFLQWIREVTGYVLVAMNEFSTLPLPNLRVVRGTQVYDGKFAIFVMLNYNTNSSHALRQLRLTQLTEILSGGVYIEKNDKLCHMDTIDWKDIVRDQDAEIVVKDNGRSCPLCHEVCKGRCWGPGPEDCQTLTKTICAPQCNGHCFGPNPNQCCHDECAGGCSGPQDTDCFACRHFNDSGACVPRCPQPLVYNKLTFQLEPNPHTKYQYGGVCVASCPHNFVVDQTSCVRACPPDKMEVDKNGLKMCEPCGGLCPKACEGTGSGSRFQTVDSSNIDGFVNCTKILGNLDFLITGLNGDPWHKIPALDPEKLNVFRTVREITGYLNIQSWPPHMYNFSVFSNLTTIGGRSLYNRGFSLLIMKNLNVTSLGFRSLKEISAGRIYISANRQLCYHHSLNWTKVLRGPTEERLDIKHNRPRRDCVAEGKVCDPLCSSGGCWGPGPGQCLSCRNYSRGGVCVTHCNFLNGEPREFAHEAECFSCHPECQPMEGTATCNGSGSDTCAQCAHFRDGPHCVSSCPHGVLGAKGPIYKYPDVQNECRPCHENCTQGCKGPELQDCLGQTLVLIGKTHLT


Key:
[1] = target: T2, human MET on NIH3T3-hMET cells (human, UniProt P08581 25-1390); test: flow cytometry, transfected NIH3T3 cells
T2 construct: NIH3T3 cells transfected with a plasmid expressing hMET
T2 sequence (P08581 25-1390 limits assumed): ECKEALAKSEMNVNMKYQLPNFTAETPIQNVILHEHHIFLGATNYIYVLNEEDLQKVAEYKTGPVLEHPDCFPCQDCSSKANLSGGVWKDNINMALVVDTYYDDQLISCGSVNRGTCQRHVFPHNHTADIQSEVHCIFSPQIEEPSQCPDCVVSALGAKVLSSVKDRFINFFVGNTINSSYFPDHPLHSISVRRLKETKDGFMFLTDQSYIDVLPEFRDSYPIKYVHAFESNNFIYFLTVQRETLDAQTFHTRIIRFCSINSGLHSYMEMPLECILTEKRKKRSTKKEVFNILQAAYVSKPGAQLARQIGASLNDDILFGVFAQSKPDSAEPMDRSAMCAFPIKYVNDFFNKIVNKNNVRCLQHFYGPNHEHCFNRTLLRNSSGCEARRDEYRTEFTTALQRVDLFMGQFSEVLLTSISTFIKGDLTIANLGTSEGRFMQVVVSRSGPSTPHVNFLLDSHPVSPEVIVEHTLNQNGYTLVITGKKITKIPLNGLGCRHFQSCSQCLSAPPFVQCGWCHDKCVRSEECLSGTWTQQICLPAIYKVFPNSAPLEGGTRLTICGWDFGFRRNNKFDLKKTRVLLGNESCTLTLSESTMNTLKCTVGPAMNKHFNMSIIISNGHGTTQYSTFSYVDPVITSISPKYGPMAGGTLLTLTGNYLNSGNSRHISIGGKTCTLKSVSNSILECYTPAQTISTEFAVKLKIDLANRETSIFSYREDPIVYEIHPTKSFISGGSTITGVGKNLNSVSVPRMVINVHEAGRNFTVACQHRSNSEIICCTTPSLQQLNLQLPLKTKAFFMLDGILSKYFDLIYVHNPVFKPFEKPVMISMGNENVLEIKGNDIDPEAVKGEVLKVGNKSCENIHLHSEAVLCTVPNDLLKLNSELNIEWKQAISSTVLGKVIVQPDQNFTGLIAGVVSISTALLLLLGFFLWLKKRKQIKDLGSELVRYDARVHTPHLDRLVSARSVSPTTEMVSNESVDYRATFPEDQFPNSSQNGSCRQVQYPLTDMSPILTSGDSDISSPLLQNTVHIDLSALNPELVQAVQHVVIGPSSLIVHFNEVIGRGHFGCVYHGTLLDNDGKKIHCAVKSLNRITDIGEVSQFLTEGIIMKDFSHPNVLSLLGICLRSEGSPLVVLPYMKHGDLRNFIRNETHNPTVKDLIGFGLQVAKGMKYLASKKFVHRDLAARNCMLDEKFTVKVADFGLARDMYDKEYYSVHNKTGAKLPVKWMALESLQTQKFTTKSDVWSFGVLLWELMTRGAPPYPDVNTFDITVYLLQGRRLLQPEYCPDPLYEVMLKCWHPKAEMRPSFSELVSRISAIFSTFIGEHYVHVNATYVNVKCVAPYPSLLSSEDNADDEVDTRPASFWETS
Procedure: (§1) Specifically, CHO-hHER3 cells, CHO-fasHER3 cells, NIH3T3-hMET cells or NIH3T3-fasMET cells were transferred to a 96-well plate at a density of 5×10⁴ cells/well respectively. The antibodies were added to the 96-well plate, and incubated at 4° C. for 30 min.

[2] = target: T3, monkey MET on NIH3T3-fasMET cells (monkey, UniProt A0M8R7 25-1381); test: flow cytometry, transfected NIH3T3 cells
T3 construct: NIH3T3 cells transfected with a plasmid expressing fasMET
T3 sequence (A0M8R7 25-1381 S170N/I621T limits assumed): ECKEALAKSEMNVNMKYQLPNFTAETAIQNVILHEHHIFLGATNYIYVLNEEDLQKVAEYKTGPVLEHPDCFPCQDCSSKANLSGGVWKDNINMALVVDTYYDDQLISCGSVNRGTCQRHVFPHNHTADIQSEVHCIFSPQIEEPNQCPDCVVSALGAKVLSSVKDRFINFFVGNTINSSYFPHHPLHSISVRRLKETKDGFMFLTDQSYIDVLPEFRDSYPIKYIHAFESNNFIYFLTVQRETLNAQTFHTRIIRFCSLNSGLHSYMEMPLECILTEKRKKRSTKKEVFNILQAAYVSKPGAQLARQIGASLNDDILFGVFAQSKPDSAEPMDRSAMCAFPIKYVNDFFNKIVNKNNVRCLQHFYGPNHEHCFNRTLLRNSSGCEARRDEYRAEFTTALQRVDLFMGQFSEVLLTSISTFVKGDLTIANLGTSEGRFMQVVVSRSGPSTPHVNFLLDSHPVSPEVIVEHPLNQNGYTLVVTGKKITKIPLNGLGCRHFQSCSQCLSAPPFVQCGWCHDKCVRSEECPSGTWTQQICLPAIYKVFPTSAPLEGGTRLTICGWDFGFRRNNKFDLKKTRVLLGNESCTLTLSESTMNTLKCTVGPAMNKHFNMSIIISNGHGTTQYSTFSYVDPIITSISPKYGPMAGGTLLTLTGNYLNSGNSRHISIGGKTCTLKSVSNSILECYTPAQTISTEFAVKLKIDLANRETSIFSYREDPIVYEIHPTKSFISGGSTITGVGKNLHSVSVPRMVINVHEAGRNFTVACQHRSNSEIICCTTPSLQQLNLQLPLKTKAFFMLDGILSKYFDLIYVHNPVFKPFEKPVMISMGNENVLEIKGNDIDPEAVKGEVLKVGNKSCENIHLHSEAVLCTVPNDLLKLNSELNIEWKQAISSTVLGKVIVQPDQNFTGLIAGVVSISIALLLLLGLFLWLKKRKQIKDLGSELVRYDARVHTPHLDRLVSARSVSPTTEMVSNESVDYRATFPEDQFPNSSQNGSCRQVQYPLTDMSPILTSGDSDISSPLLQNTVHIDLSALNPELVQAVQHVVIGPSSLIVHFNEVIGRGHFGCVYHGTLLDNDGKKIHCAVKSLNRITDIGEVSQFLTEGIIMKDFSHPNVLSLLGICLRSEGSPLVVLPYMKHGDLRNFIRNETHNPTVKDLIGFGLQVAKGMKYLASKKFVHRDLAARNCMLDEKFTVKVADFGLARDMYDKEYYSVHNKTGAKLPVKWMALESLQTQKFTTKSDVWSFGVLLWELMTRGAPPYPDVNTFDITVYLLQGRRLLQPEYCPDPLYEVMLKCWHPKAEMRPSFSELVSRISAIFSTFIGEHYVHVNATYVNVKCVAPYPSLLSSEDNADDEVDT
Procedure: as §1

[3] = target: T4, His-tagged monkey HER3 protein (fasHER3, Sino Biological, Inc., Cat #: 90043-K08H) (monkey); test: SPR, Ab captured on Protein A, antigen 400 nM
T4 construct: Bought protein
Procedure: (§2) Purified antibodies were captured on the Protein A chip (Series S Sensor Chip Protein A) for the detection. 2 μg/mL antibodies were loaded at 10 μL/min to bind to hHER3, fasHER3, hMET or fasMET (400 and 0 nM). The flow rate was 30 μL/min, the binding and dissociation time were set to 180 s and 400 s, respectively. The chip was regenerated after the last injection of each titration with a glycine solution ([…]) at 30 μL/min for 30 seconds.

[4] = target: T5, His-tagged human HER3 protein (hHER3, ACRO Biosystems Inc., Cat #: ER3-H5223) (human, UniProt P21860 20-643); test: SPR, Ab captured on Protein A, antigen 400 nM
T5 construct: Bought protein; also called hHER3-His; not shown: His tag
Procedure: as §2

[5] = target: T6, His-tagged human MET (hMET, Sino Biological, Inc., Cat #: 10692-H08H) (human, UniProt P08581 25-932); test: SPR, Ab captured on Protein A, antigen 400 nM
T6 construct: Bought protein; not shown: His tag
T6 sequence (P08581 25-932 limits assumed): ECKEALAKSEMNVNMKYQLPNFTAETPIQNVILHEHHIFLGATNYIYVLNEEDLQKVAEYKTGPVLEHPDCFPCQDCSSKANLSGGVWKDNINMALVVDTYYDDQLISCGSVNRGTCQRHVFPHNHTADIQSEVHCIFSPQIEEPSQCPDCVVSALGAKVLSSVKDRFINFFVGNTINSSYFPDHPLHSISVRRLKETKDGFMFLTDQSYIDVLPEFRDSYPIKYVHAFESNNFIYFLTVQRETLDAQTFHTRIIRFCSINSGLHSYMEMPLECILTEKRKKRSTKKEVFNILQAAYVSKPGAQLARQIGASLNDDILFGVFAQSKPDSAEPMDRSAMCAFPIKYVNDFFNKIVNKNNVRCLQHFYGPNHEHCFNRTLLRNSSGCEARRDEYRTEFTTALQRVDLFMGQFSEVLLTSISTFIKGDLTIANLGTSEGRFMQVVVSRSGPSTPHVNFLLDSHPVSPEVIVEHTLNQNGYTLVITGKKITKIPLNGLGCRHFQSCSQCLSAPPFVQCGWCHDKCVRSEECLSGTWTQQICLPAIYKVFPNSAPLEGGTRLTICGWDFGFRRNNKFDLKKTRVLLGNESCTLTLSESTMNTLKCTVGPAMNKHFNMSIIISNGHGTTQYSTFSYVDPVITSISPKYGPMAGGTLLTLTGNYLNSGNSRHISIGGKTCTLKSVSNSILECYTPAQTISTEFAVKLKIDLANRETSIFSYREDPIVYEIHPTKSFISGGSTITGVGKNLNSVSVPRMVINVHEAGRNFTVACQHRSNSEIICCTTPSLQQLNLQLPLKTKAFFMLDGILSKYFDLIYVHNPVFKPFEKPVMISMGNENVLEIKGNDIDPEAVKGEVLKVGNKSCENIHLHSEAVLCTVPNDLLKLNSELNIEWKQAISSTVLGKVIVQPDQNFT
Procedure: as §2

[6] = target: T1, monkey (Macaca fascicularis) HER3 on …; test: flow cytometry, transfected CHO cells
Procedure: as §1

[7] = target: T7, human HER3 on CHO-hHER3 cells (human, UniProt P21860 20-643); test: flow cytometry, transfected CHO cells
T7 construct: CHO-S cells transfected with hHER3
Procedure: as §1

| Positive Cells [1] [%] | Positive Cells [2] [%] | Kd [3] [nM] | koff [3] [s⁻¹] | kon [3] [M⁻¹ s⁻¹] | Kd [4] [nM] | koff [4] [s⁻¹] | kon [4] [M⁻¹ s⁻¹] | Kd [5] [nM] | koff [5] [s⁻¹] | kon [5] [M⁻¹ s⁻¹] | Positive Cells [6] [%] | Positive Cells [7] [%] | Binder |
| --- | --- | --- | --- | --- | --- | --- | --- | --- | --- | --- | --- | --- | --- |
| 99.7 | 68.4 | 103 | 0.000582 | 5630 | 29.3 | 0.000548 | 18700 | 44.2 | 0.00282 | 63800 | 54.9 | 56 | anti-HER3/MET bispecific antibody 1C5-2F11 (bispecific antibody, V domains shown) VH 1: QVQLVESGGGVVQPGKSLRLSCAASGFTFSRSGMHWVRQAPGKGLEWVALISFDGSNKYYADSVKGRFTISRDNSKNTLNLQMNSLRAEDTAVYYCAKGGFGVVIYDAFDIWGHGTMVTVSS VH 2: EVQLVESGPGLVKPSETLSLTCTVSGGSISSNYWSWIRQPPGKGLEWIGYIYHSGSTNYNPSLKSRVTISVDTSKNQFSLKLSSVTAADTAVYFCARGPVSIFGVVKYIDLWGRGTLVTVSS VL: not shown |
| 99.8 | 57.2 | 38.7 | 0.00263 | 67800 | 16.9 | 0.00265 | 157000 | 10.9 | 0.00626 | 574000 | 64.4 | 67.9 | anti-HER3/MET bispecific antibody 1B2-8H10 (bispecific antibody, V domains shown) VH 1: QVQLVQSGPVLVKPTETLTLTCTVSTFSLSNARMGVSWIRQPPGKALEWLAHIFSNDDKSYSPSLKSRLTISKDTSKTQVVLTMTNMDPVDTATYYCSRMRYSGGPFDYWGQGSLVTVSS VH 2: QVQLQQWGAGLLKPSETLSLTCAVYGGSFSGYYWTWIRQPPGKGLEWIGESNHGGSTNFNPSLKSRVTISVDTSKNHFSLKLSPVTAADTAVYYCTRGGTIFGLKDAFDIWGQGTMVTVSS VL: not shown |
| 99.8 | 54.8 | 81.5 | 0.000655 | 8040 | 28.5 | 0.000593 | 20800 | 12.8 | 0.00427 | 333000 | 58.9 | 67.3 | anti-HER3/MET bispecific antibody 1C5-8H10 (bispecific antibody, V domains shown) VH 1: QVQLVESGGGVVQPGKSLRLSCAASGFTFSRSGMHWVRQAPGKGLEWVALISFDGSNKYYADSVKGRFTISRDNSKNTLNLQMNSLRAEDTAVYYCAKGGFGVVIYDAFDIWGHGTMVTVSS VH 2: QVQLQQWGAGLLKPSETLSLTCAVYGGSFSGYYWTWIRQPPGKGLEWIGESNHGGSTNFNPSLKSRVTISVDTSKNHFSLKLSPVTAADTAVYYCTRGGTIFGLKDAFDIWGQGTMVTVSS VL: not shown |
